Measured values published in PMC4794604 (Molecules and Cells, 2016).

Columns and labels:
Assay in all cases: ELISA
Fc-fused ECD of EGFR = Fc-fused ECD of EGFR (Homo sapiens (assumed), UniProt P00533)
Fc-fused ECD of HER3 = Fc-fused ECD of HER3 (Homo sapiens (assumed), UniProt P21860)
Fc-fused ECD of HER4 = Fc-fused ECD of HER4 (Homo sapiens (assumed), UniProt Q15303)
Fc-fused ECD of PDGFRβ = Fc-fused ECD of PDGFRβ (Homo sapiens (assumed), UniProt P09619)
Fc-fused ECD of VEGFR2 = Fc-fused ECD of VEGFR2 (Homo sapiens (assumed), UniProt P35968)
Fc-fused ECD of IGF-IR = Fc-fused ECD of IGF-IR (Homo sapiens (assumed), UniProt P08069)
[1] = target: Fc-fused ECD of FGFR3 (IIIc) (Homo sapiens (assumed), UniProt P22607)
HGFR/c-Met ECD-Fc = HGFR/c-Met ECD-Fc (Homo sapiens (assumed), UniProt P08581)

Measured: binding result

Chain of HGFR/c-Met ECD-Fc (P08581 25-932): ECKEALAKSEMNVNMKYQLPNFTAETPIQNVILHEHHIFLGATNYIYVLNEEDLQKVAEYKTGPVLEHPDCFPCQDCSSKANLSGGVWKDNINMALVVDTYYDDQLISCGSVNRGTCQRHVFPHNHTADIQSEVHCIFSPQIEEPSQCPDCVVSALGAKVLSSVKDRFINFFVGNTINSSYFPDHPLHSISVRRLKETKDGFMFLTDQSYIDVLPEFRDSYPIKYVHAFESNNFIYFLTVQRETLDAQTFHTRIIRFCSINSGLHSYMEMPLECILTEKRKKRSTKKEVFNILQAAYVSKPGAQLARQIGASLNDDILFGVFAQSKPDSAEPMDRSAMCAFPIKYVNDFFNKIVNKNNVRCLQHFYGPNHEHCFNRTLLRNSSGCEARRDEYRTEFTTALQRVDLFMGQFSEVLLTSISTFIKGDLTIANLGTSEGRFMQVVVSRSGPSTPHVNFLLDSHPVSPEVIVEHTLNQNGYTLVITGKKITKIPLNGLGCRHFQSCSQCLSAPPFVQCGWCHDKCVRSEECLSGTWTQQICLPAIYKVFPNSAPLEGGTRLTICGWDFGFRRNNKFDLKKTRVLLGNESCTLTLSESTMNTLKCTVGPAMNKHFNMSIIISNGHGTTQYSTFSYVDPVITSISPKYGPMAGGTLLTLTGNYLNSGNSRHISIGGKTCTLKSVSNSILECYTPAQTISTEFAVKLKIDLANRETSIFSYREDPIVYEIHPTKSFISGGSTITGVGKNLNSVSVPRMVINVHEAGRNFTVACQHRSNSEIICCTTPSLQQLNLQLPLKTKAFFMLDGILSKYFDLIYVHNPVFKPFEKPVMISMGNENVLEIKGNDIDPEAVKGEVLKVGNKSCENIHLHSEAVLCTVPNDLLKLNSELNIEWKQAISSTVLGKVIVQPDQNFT
Chain of Fc-fused ECD of HER3 (P21860 20-643): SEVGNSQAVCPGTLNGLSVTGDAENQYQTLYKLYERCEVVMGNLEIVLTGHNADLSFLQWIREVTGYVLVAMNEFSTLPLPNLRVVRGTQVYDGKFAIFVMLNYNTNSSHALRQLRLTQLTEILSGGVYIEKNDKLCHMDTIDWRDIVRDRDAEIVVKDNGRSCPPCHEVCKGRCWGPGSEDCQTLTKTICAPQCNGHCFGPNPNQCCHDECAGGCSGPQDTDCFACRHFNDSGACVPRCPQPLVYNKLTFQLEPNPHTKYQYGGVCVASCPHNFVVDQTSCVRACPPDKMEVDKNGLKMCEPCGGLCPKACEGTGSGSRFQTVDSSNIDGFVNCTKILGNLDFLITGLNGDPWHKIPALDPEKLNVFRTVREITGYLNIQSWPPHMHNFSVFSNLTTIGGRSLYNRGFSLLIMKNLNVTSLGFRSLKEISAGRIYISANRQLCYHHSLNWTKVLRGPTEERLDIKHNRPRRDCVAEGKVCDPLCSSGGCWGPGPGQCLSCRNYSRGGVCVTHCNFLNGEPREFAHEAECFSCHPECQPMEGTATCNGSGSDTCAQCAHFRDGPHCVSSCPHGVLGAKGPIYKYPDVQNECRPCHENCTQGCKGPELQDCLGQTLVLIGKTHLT
Chain of Fc-fused ECD of VEGFR2 (P35968 20-764): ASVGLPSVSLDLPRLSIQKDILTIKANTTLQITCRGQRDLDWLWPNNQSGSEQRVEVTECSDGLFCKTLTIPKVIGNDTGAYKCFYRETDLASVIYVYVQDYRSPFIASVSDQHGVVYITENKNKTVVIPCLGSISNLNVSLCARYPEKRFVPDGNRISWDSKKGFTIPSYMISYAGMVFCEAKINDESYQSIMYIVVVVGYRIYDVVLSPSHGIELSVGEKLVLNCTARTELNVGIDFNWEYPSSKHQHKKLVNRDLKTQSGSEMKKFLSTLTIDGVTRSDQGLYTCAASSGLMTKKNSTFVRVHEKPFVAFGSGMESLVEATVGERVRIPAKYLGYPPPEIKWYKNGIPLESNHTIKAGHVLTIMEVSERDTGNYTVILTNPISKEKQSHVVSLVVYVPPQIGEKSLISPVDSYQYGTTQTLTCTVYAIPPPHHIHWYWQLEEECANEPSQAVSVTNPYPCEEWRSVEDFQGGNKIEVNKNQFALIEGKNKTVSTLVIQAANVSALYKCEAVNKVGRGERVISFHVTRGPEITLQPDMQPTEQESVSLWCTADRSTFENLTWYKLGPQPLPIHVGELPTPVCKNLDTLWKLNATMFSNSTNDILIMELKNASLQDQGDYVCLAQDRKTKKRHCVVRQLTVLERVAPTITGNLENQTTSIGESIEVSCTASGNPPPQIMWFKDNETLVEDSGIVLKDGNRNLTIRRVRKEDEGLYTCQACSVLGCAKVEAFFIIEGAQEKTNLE
Chain of Fc-fused ECD of IGF-IR (P08069 741-935): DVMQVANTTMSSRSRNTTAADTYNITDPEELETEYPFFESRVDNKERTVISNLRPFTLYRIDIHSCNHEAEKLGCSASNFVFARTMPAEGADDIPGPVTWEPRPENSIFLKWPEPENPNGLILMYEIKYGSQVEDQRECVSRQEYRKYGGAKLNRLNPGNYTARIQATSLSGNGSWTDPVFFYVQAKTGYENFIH
Chain of Fc-fused ECD of FGFR3 (IIIc) (P22607 23-375): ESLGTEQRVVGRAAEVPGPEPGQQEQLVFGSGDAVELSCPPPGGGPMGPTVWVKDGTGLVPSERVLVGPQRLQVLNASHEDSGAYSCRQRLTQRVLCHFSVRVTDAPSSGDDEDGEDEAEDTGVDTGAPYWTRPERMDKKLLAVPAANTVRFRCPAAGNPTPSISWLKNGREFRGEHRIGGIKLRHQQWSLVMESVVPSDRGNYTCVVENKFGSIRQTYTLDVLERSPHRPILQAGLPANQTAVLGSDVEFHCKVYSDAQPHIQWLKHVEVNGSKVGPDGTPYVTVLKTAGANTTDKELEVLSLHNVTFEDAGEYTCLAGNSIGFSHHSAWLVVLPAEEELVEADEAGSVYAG
Chain of Fc-fused ECD of HER4 (Q15303 26-651): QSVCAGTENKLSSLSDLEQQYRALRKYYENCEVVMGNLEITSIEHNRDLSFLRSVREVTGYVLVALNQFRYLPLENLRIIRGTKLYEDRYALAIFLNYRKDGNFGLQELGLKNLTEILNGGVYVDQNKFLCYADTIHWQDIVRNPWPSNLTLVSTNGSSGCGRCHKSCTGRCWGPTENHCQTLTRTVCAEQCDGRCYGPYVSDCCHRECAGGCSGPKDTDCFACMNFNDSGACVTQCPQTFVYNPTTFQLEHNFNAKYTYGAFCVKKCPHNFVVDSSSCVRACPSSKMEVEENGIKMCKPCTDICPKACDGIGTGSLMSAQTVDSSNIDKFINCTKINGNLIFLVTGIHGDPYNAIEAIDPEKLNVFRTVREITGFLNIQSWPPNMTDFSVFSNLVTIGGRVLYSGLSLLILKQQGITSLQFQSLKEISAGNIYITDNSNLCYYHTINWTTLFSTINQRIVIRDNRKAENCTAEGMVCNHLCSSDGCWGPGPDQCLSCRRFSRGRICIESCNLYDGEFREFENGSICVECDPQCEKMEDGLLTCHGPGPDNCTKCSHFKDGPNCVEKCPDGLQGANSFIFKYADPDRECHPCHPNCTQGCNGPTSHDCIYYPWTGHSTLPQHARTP
Chain of Fc-fused ECD of PDGFRβ (P09619 33-532): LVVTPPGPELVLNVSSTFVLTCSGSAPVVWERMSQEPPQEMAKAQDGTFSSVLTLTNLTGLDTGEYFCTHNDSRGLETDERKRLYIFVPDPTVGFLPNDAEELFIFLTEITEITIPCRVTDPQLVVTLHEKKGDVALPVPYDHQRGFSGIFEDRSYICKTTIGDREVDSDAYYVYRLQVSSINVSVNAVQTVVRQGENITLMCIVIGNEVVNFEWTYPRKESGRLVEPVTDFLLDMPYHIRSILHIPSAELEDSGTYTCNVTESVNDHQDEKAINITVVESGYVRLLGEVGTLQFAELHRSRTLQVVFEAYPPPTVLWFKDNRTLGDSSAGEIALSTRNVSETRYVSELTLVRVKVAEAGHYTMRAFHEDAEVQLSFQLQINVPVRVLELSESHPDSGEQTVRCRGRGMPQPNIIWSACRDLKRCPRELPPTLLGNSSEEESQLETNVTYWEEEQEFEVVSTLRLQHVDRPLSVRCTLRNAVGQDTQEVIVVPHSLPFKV

B1: AH06, variant of hu4D5 from library LN02, IgG format (antibody, V domains shown)
VH: EVQLVESGGGLVQPGGSLRLSCAASGFNIKDTYIHWVRQAPGKGLEWVARIYPTNGYTRYADSVKGRFTISADTSKNTAYLQMNSLRAEDTAVYYCSRWGGWGFYAFALWGQGTLVTVSS
VL: not shown
no binding (tested: 30 nM): all assays above
